We go through three molecules from patent publication US20240398896A1, “INFLAMMASOME INHIBITION” (National University of Singapore, priority 2021, published 2024).

Positions count from the first letter of the chain named.

Data set [1] concerns SARS-COV-2 immune complex-induced inflammasome activation. Description: SARS-COV-2 immune complex-induced inflammasome activation in human monocytes. In kind it is cell-based. To be noted: 50 μM MCC950, 18 h.
The conditions of data set [2]: rheumatoid arthritis; cited from earlier work.
For data set [3], the target named is T1, NLRP3 inflammasome (Homo sapiens, UniProt Q9ULZ3). The data set is described as follows: ASC speck and filament formation in HEK293T cells reconstituted with human NLRP3-mCitrine and human ASC-mPlum (ImageStream, confocal). In kind it is cell-based. Set-up: expressed in transfected cells; host or cells: HEK293T. As to conditions: HEK293T; for ASC2 filament formation / distribution: ImageStream and confocal. How it is done: (§1) Inflammasome activation assays.
T1 sequence (Q9ULZ3 whole entry): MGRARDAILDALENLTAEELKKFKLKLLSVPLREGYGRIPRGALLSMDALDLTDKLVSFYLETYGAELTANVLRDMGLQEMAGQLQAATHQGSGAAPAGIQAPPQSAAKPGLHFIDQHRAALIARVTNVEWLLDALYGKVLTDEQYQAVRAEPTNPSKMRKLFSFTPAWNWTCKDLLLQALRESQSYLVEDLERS
ImageStream imaging flow cytometry. […] Nuclei were stained with DAPI.
Confocal imaging. […] At 48 h post-transfection, cells were fixed with 10% formalin for 15 min at room temperature. DAPI (1:2000 dilution) was used for nuclear staining. All samples were then mounted and examined using the Leica TCS SP8 confocal microscope.

A further data set addresses T2, human ASC (Homo sapiens, UniProt Q9ULZ3).
T2 construct: expressed in transfected cells; host or cells: HEK293T
The data set is described as follows: Co-immunoprecipitation of ASC2-His with human ASC-Flag from HEK293T cells. In kind it is binding. To be noted: 0.25 μg bat or hupa4 ASC2 vs 3 μg human ASC2 transfected, FIG. 26A. How it is done:
(§2) Co-immunoprecipitation. HEK293T cells were transfected in 6-well plate with plasmids encoding His-tagged empty vector (His alone), bat ASC2, human ASC2, and Hupa4 ASC2 along with Flag-tagged human or bat ASC. 3 μg human ASC2, in contrast to 0.25 μg control, bat or hupa4 ASC2, were transfected to normalize the expression. At 48 h post-transfection, cells were lysed in IP lysis buffer (Pierce) according to manufacturer's protocol and centrifuged at 500 g for 10 minutes at 4° C. The supernatants were subjected to immunoprecipitation by incubation for 16 hours at 4° C. with anti-Flag (Sigma) incubated magnetic beads, followed by washing three times with TBS containing 0.05% Tween 20 and once with purified water. Bound proteins were separated by 15% SDS-PAGE, followed by immunoblotting analysis with the indicated antibodies.

A further data set concerns bat ASC. The data set is described as follows: Co-immunoprecipitation of ASC2-His with bat ASC-Flag from HEK293T cells. In kind it is binding. To be noted: 0.25 μg bat or hupa4 ASC2 vs 3 μg human ASC2 transfected, FIG. 26B. How it is done: as §2
Data set [4] deals with T3, NLRP3 inflammasome (Mus musculus, UniProt Q9EPB4).
T3 sequence (Q9EPB4 1-193): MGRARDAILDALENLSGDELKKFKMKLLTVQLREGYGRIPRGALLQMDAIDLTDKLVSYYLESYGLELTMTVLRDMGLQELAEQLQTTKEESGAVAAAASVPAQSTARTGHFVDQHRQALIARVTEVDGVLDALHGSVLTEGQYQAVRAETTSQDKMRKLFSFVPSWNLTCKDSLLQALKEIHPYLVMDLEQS
Description: Inflammasome activation in LPS-primed mouse immortalized macrophages (iMACs) stably expressing ASC2, stimulated with nigericin. In kind it is cell-based. The arrangement: endogenous in cells; host or cells: BMDMs of C57BL/6 wild-type and bat ASC2/rtTA mice. To be noted: iMACs stably expressing equal ASC2-LSSmOrange, LPS 3 h, FIG. 11J, 11K.
Excerpt: (§3) Generation of THP-1 and IMACs stable cells. […] Single cell clones were generated for THP-1 cells stably expressing ASC2-LSSmOrange.
as §1

Data set [5] addresses T1, NLRP3 inflammasome. Description: Inflammasome activation in LPS-primed THP-1 macrophages stably expressing ASC2, stimulated with nigericin. In kind it is cell-based. The arrangement: endogenous in cells; host or cells: THP-1 macrophages (PMA-differentiated, LPS-primed). As to conditions: THP-1 macrophages stably expressing equal ASC2-mCitrine, LPS 3 h, nigericin 2 h; FIG. 11L, 11M.
Excerpt: as §3, §1
ImageStream imaging flow cytometry.

T2 sequence (Q9ULZ3 whole entry): as the sequence (Q9ULZ3 whole entry) above

Regarding `CC(C)(O)c1coc(S(=O)(=O)NC(=O)Nc2c3c(cc4c2CCC4)CCC3)c1` [MCC950], the “Cell death (LDH release)” value in data set [1] (100 ng/ml Pam3CSK4, immune complexes, FIG. 10M) is “abolished”. In addition, the IL-1β secretion entry in data set [1] (Pam3CSK4 priming, immune complexes, FIG. 10I) is “abolished”. Besides, the “Reason for discontinuation after phase II clinical trials” value in data set [2] is reported as “liver toxicity”.

B1: human ASC2: wildtype human ASC2, 89 amino acids, SEQ ID NO:7 (protein)
chain: MGTKREAILKVLENLTPEELKKFKMKLGTVPLREGFERIPRGALGQLDIVDLTDKLVASYYEDYAAELVVAVLRDMRMLEEAARLQRAA
With B1, the “ASC2 filament formation / distribution” value with NLRP3 inflammasome [3] is “diffusely distributed”. In addition, the “Co-localization with human ASC” value with NLRP3 inflammasome [3] (imaging, FIG. 3A) was “not between human ASC2 and human ASC”.

B2: hupa4 ASC2: human ASC2 with 4 key sites substituted simultaneously with the ones in bat ASC2, SEQ ID NO:6 (protein)
chain: B1 chain with K10E, E37R, Y61C, R77G
Consider B2, for which the “Interaction with human ASC (co-IP)” value with human ASC is recorded as “interact strongly with human ASC”. In addition, the “Interaction with bat ASC (co-IP)” value in the data set with bat ASC is listed as “interact with bat ASC more strongly than human ASC2”. Also, in the data set with NLRP3 inflammasome [3], the “ASC2 filament formation / distribution” value is “form filaments”. In the data set with NLRP3 inflammasome [3] (human NLRP3-mCitrine, human ASC-mPlum, 50 ng ASC2-LSSmOrange, 48 h post-transfection), the “ASC speck formation (human NLRP3 inflammasome activation)” value was “gained the ability to inhibit NLRP3 inflammasome”. Besides, the “Inflammasome inhibition (LDH release and IL-1β secretion)” value in the data set with NLRP3 inflammasome [4] and with NLRP3 inflammasome [5] was “gain-of-function” each time.
